From US5935824A, “Protein expression system” (Technologene, Inc., priority 1996, dated 1999)
No end group written: not given here.

What was measured:
[1] = molecular target: T1, carboxypeptidase Y (CPD-Y) immobilized to Acti-Disk (Saccharomyces cerevisiae, UniProt P00729); test: Flow digestion of Lys-Lys peptide through CPD-Y Acti Disk, modified ninhydrin assay; format: biochemical, yeast; details: 400 μM peptide; pH 5.75; flow 2 ml/min and 500 μl/min
T1 construct: purchased Sigma
T1 sequence (P00729 112-532): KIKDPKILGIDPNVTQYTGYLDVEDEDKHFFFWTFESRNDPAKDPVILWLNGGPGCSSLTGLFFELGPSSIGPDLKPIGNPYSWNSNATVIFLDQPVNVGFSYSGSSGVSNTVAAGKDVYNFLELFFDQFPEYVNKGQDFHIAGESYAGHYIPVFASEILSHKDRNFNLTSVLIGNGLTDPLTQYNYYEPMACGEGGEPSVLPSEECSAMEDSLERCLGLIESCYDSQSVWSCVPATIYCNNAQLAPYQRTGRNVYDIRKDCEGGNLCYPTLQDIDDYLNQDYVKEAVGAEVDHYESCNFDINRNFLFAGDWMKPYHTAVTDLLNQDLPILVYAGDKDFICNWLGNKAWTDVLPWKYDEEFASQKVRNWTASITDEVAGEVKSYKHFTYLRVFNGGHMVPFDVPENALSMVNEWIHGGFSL
Protocol: The peptide sequence is […](SEQ ID NO:73) (Sigma; herein after referred to as the Lys-Lys peptide). Analysis of the of the reaction rates required the use of a modified ninhydrin assay developed by Doi, et al. for the analysis of peptidase activity [Anal. Biochem. 118:173 (1981)]. Compared to the ninhydrin assays described above, the pH of the ninhydrin solution is reduced (pH=4.6) and the heating time is shortened (less than or equal to 20 minutes) such that only free amino acids react at appreciable rates. Incubation times were strictly controlled by performing incubation at elevated temperatures in a programmable thermocycler (Hybaid).
The Lys-Lys peptide was suspended at a concentration of 400 μM in 100 mM Citrate buffer, 100 mM NaCl, pH 5.75 and subjected to flow digestions at 2 ml/min and 500 μl/min. The amount of free lysine released was quantified by mixing 200 μl of flow sample with 200 μl 0.2 M NaCitrate, pH 4.6 and 100 μl of 2.5% ninhydrin in methyl cellusolve (Sigma), 0.03% ascorbic acid. […] The OD570 was determined and the values were converted to μM of product in order to determine the first order rate constant for the Lys-Lys bond in the CPD-Y Acti Disk flow digestion (k=0.160). This is the same value determined for the N-CBZ-Gly-Pro dipeptide. […]

[2] = molecular target: T1, carboxypeptidase Y (CPD-Y) immobilized to Acti-Disk; test: Flow digestion of control peptide through CPD-Y immobilized on Acti-Disk, HPLC analysis; format: biochemical, yeast
Protocol: To achieve limited, specific digestion of the control peptide (i.e., removal of the phenylalanine residue only) approximately 4 mg of CPD-Y (Sigma) was immobilized to a pre-activated (GTA) Acti-Disk Cartridge (25 mm; Arbor Technologies). The silicon-based matrix within the Acti-Disk is described in U.S. Pat. No. 3,862,030, the disclosure of which is herein incorporated by reference. Essentially, this matrix is a microporous fluid-permeable filter that has finely divided hydrophilic filler particles dispersed throughout a microporous matrix which are capable of binding large amounts of protein or enzyme. The matrix has an extremely large surface area (80 m^2 /gram) attributed to a large number of interconnected pores of non-uniform size distribution. The matrix is 60% porous and is commercially available in a wide variety of sizes and thicknesses for scale-up. This matrix represents a limited-diffusional matrix.
Immobilization of CPD-Y to the Acti-Disk cartridge was accomplished by recirculating 10 mls of a solution containing 1 mg/ml CPD-Y in 100 mM Na Citrate (pH 6.0) through the Acti-Disk according to the manufacturers protocol for 90 minutes at room temperature. The OD280 of the CPD-Y solution was measured before and after the immobilization procedure. The disk was washed extensively with 100 mM Tris-HCl (pH 8.0), 500 mM NaCl buffer until no protein was detected in the wash. The final concentration of enzyme per available fluid volume within the disk (65 nmoles/115 μl) was 0.565 mM (35 mg/ml). The porous nature of the Acti-Disk matrix immobilizes the carboxypeptidase enzyme on the […] of the matrix allowing a more consistent exposure of the substrate to enzyme than do the traditional cross linked agarose matrixes.
The control peptide (SEQ ID NO:70), at a concentration of 100 μg/ml, was passed through the CPD-Y Disk at flow rates ranging from 4 ml/min to 100 μl/min; a […] pump (Pharmacia) was used to regulate the flow. A 2 ml sample of the flow digestion at 4 ml/min was collected. The setting on the peristaltic pump was changed to 3 ml/min and the reaction was allowed to equilibrate. Five milliliters of the solution containing the control peptide processed at the lower flow rate (3 ml/min) was allowed to pass through the exit tubing before another 2 ml sample was collected. This procedure was repeated at each designated flow rate. An aliquot (25 μl) of each sample was run on the Hytach protein column as described above. In Table 4 the time refers to time spent in the reaction chamber (i.e., the Acti-Disk).
This value was determined by comparing the initial velocity of the control peptide CPD-Y-Acti-Disk flow digestion to the manufacturer's specific activity for free enzyme (i.e., enzyme present in solution) through the use of the Michaelis-Menton rate equation. The specific activity for Phe-Ala substrate 100 μmoles/mg (Sigma) was converted to activity by multiplying by the amount of enzyme immobilized within the Acti-Disk matrix (4 mg). […] This value compares well to the value that can be approximated from the Kcat data provided by Kuhn. The Kcat value for the cleavage of the Ser-Phe bond by free CPD-Y can be deduced from Kuhn's data to be approximately 400/min and this value was used to calculate the maximum initial velocity (Vo at [S]=79 μM) for 100% activity of the immobilized enzyme. […] 100% activity (Vo) for 79 μM flow digestion experiments is calculated using the theoretical KM =0.69 mM deduced from Kuhn's data, Vo=23.2 mM/min. Initial velocity Vo for control peptide flow experiments were determined by plotting μM of product produced versus seconds of incubation within the immobilization matrix of the Acti-Disk (see FIG. 29).
In FIG. 29, the log ([S]/[S]-[P]) (in μM) is plotted against the incubation time (in seconds). For the results shown in FIG. 29, the following calculations apply: the 4000 μl/min flow rate through 115 μl reaction matrix equals 1.73 seconds within the matrix. […]

[3] = molecular target: T2, CPD-Y immobilized on cross-linked agarose (Saccharomyces cerevisiae, UniProt P00729); test: Recirculating digestion of control peptide over CPD-Y/agarose column, HPLC; format: biochemical, yeast; details: 100 μg/ml in PBS pH 6.5; gravity flow
T2 construct: purchased Pierce
T2 sequence (P00729 112-532): T1 sequence (P00729 112-532)
Protocol: Ten milliliters of a solution containing 100 μg/ml of the control peptide in PBS (pH 6.5) was repeatedly passed through 1 ml of a matrix consisting of CPD-Y immobilized on cross-linked agarose (12.5 U/ml, Pierce). The 10 ml sample was applied to the top of a 1.0 cm Affinica column (Schleicher & Schuell) containing 1.0 ml of the immobilized CPD-Y/agarose and allowed to flow by gravity. An aliquot (100 μl) of the digestion reaction were taken and the remaining sample was reapplied to the column as the previous sample approached the matrix (i.e., the sample was recirculated through the column). Aliquots (100 μl) were removed after 1, 5, 11 and 17 passes over the immobilized CPD-Y/agarose column; 20 μl of these aliquots were analyzed by high pressure liquid chromatography (HPLC) using a TFA/acetonitrile gradient and a C-18 column (Hytach protein column). A Shimadzu HPLC spectrophotometer equipped with a UV recorder was adjusted to analyze the digestion products at 210 nm. The following buffers were used for the HPLC analysis. Buffer A consisted of 1.125% TFA and Buffer B consisted of 1.0% TFA in 80% acetonitrile. To achieve separation of the peptides produced by CPD-Y digestion of the control peptide, a gradient of 0-30% B buffer was applied over a 30 minute period.

[4] = molecular target: T1, carboxypeptidase Y (CPD-Y) immobilized to Acti-Disk; details: free CPD-Y; deduced from Kuhn; cited from earlier work

Q: With PLSRLSVAKK [Lys-Lys peptide] as the sequence, how does the “First order rate constant for the Lys-Lys bond (k)” value [1] read?
A: 0.160

Q: For ALKDAQTNSSSF [control peptide], which “Initial reaction rate (Vo), observed” value ([2]; 79 μM control peptide, initial slope of fitted curve) is on record?
A: ~3.6 mM/min

Q: And the “Cleavage of the ultimate bond (Ser-Phe)” value ([2]; 100 μg/ml, single pass, flow rate 500 μl/ml (so in the source))?
A: 86%

Q: What about the “Cleavage of the ultimate bond (Ser-Phe)” value ([2]; 5 ml recirculated 20 minutes at the same flow rate) of the same sequence?
A: 96%

Q: And the “Vmax for 100% activity” value ([2]; Kcat 400/min × 0.565 mM enzyme)?
A: 226 mM/min

Q: What about the “Vo for 100% activity of the immobilized enzyme” value ([2]; [S]=79 μM, theoretical KM 0.69 mM) of the same sequence?
A: 23.2 mM/min

Q: And the “Product” value ([2]; control peptide 100 μg/ml, flow rate 0.25 ml/min, 27.6 sec in Acti-Disk)?
A: 72 µM

Q: And the “% Product Remaining” value ([2]; control peptide 100 μg/ml, flow rate 0.25 ml/min, 27.6 sec in Acti-Disk, 0.46 min)?
A: 8.3%

Q: And the “Product” value ([2]; flow rate 0.50 ml/min, 13.8 sec)?
A: 68 µM

Q: And the “% Product Remaining” value ([2]; flow rate 0.50 ml/min, 13.8 sec, 0.23 min)?
A: 14.0%

Q: And the “Product” value ([2]; flow rate 1.0 ml/min, 6.9 sec)?
A: 59 µM

Q: And the “% Product Remaining” value ([2]; flow rate 1.0 ml/min, 6.9 sec, 0.115 min)?
A: 25.6%

Q: What about the “Product” value ([2]; flow rate 1.5 ml/min, 4.6 sec) of the same sequence?
A: 54 µM

Q: And the “% Product Remaining” value ([2]; flow rate 1.5 ml/min, 4.6 sec, 0.0766667 min)?
A: 32.4%

Q: And the “Product” value ([2]; flow rate 2.0 ml/min, 3.45 sec)?
A: 48 µM

Q: And the “% Product Remaining” value ([2]; flow rate 2.0 ml/min, 3.45 sec, 0.0575 min)?
A: 38.7%

Q: What about the “Product” value ([2]; flow rate 2.5 ml/min, 2.76 sec) of the same sequence?
A: 45 µM

Q: And the “% Product Remaining” value ([2]; flow rate 2.5 ml/min, 2.76 sec, 0.046 min)?
A: 42.8%

Q: What about the “Product” value ([2]; flow rate 3.0 ml/min, 2.3 sec) of the same sequence?
A: 43 µM

Q: What about the “% Product Remaining” value ([2]; flow rate 3.0 ml/min, 2.3 sec, 0.0383333 min) of the same sequence?
A: 46.4%

Q: And the “Product” value ([2]; flow rate 4.0 ml/min, 1.73 sec)?
A: 39 µM

Q: And the “% Product Remaining” value ([2]; flow rate 4.0 ml/min, 1.73 sec, 0.0288333 min)?
A: 51.5%

Q: What about the “Cleavage of the second bond (Ser-Ser)” value ([2]; recirculation at 500 μl/min) of the same sequence?
A: not detectably cleaved

Q: What about the “Control peptide molecules with carboxy-terminal phenylalanine removed” value ([2]; varied flow rate and substrate concentration) of the same sequence?
A: approximately 96%

Q: And the “Passes needed to substantially decrease the amount of full length peptide” value [3]?
A: > 15 passes

Q: And the “Estimated Km for the Ser-Phe bond” value [4]?
A: 0.69 mM

Q: What about the “Kcat for the Ser-Phe bond” value [4] of the same sequence?
A: 400 min⁻¹
